This data set concerns the molecule itself. In words: SEC; 100 μg tag-free cjDapE on Superdex 200 10/300, 20 mM Tris pH 8.0, 150 mM NaCl, 5 mM β-mercaptoethanol; size by calibration with gel-filtration standards.

Data on one protein can be found in article PMC12731327, “Structural Analysis of the Putative Succinyl-Diaminopimelic Acid Desuccinylase DapE from Campylobacter jejuni: Captopril-Mediated Structural Stabilization” (Current Issues in Molecular Biology, 2025).

Broadly, the stoichiometry N is the number of molecules, sites or subunits per partner or assembly.

B1: Campylobacter jejuni DapE (N-succinyl-L,L-diaminopimelic acid desuccinylase) (enzyme, UniProt Q0P9K4 1-365, looked up)
chain: MNAKEFLIELLKFKSVTPNDDGALNFIAMELSDFEAFFIEKEGIKNLLLTKKFKDEGEHLAFGGHVDVVPAGEGWSNNAFAPVEKEGFIYARGAQDMKSGVAAFVDAAKNADFKGARLSLILTSDEEGEAIYGTKAVLEWMQERDMLPDYAVVAEPTCVKKIGDSIKIGRRGSINGKLLIRGKQGHVAYPEKCINPVHDFAPVLKLLAGFDLDPGSAEFSPSKIVITDIRGGMGVCNVTPNDLKLMFNVRNSPDTSLEDVKSYVEKICHGLNYELELKQSSEAFLTNIDNKIVQKMNESVQKITHEVPELNTKGGTSDARYFAKYGVKVVEFGVCNDRIHAIDERVSIEEFEKLCLVFKDLIENF
notes: DapE of Campylobacter jejuni (ATCC 33291 genomic DNA), gene dapE (cj1048c), 365-residue protein, residues 1-365; in one crystal also captopril; The His6 tag was removed with thrombin; also called cjDapE; cjDapEZn; source: E. coli BL21 (DE3), purified (Ni-NTA, thrombin cleavage, Mono Q anion exchange); not shown: His6, N-terminal, cleaved
As to B1, the “stoichiometry N” value is 2.
